Results taken from US11419921B2, “Methods of treating neurological disorders” (EnClear Therapies, Inc., priority 2018, dated 2022).

Tested on: (GR)10
Assay: Cleavage of (GR)10 by enzymes in solution (PBS with CaCl2 and MgCl2), LC/MS of GR repeats
Assay type: biochemical
Conditions: for (GR)1 concentration / (GR)2 concentration / (GR)4 concentration / (GR)6 concentration / (GR)8 concentration / (GR)10 concentration: (GR)10 50 μM; for (GR)1 / (GR)2 / (GR)3 / (GR)4 / (GR)5 / (GR)6 / (GR)8 / (GR)10: PBS, normalized
Outline: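 (GR)10 at 50 μM final incubated with enzyme in PBS containing CaCl2 and MgCl2 (activators added as needed) at room temperature. Reactions quenched with TFA at 0, 5, 10, 30, 60 and 180 min. LC/MS quantified remaining GR repeats of each length.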

B1: Clostripain: sulfhydryl protease cleaving at the C-terminus of arginine residues; in Table 23 also immobilized on agarose resin (protein)
chain: NKNQKVTIMYYCDADNNLEGSLLNDIEEMKTGYKDSPNLNLIALVDRSPRYSSDEKVLGEDFSDTRLYKIEHNKANRLDGKNEFPEISTTSKYEANMGDPEVLKKFIDYCKSNYEADKYVLIMANHGGGAREKSNPRLNRAICWDDSNLDKNGEADCLYMGEISDHLTEKQSVDLLAFDACLMGTAEVAYQYRPGNGGFSADTLVASSPVVWGPGFKYDKIFDRIKAGGGTNNEDDLTLGGKEQNFDPATITNEQLGALFVEEQRDSTHANGRYDQHLSFYDLKKAESVKRAIDNLAVNLSNENKKSEIEKLRGSGIHTDLMHYFDEYSEGEWVEYPYFDVYDLCEKINKSENFSSKTKDLASNAMNKLNEMIVYSFGDPSNNFKEGKNGLSIFLPNGDKKYSTYYTSTKIPHWTMQSWYNSIDTVKYGLNPYGKLSWCKDGQDPEINKVGNWFELLDSWFDKTNDVTGGVNHYQW
(GR)1 concentration (enzyme 2.5 μg/mL, 0 min): BLQ
(GR)2 concentration (enzyme 2.5 μg/mL, 0 min): BLQ
(GR)4 concentration (enzyme 2.5 μg/mL, 0 min): BLQ
(GR)6 concentration (enzyme 2.5 μg/mL, 0 min): BLQ
(GR)8 concentration (enzyme 2.5 μg/mL, 0 min): 0.7 µM
(GR)10 concentration (enzyme 2.5 μg/mL, 0 min): 39.7 µM
(GR)1 concentration (enzyme 2.5 μg/mL, 5 min): 25.6 µM
(GR)2 concentration (enzyme 2.5 μg/mL, 5 min): 8.7 µM
(GR)4 concentration (enzyme 2.5 μg/mL, 5 min): 6.7 µM
(GR)6 concentration (enzyme 2.5 μg/mL, 5 min): 3.6 µM
(GR)8 concentration (enzyme 2.5 μg/mL, 5 min): 2.2 µM
(GR)10 concentration (enzyme 2.5 μg/mL, 5 min): 5.4 µM
(GR)1 concentration (enzyme 2.5 μg/mL, 10 min): 35.3 µM
(GR)2 concentration (enzyme 2.5 μg/mL, 10 min): 14.0 µM
(GR)4 concentration (enzyme 2.5 μg/mL, 10 min): 9.8 µM
(GR)6 concentration (enzyme 2.5 μg/mL, 10 min): 4.3 µM
(GR)8 concentration (enzyme 2.5 μg/mL, 10 min): 1.8 µM
(GR)10 concentration (enzyme 2.5 μg/mL, 10 min): 2.3 µM
(GR)1 concentration (enzyme 2.5 μg/mL, 30 min): 72.9 µM
(GR)2 concentration (enzyme 2.5 μg/mL, 30 min): 36.8 µM
(GR)4 concentration (enzyme 2.5 μg/mL, 30 min): 7.5 µM
(GR)6 concentration (enzyme 2.5 μg/mL, 30 min): 1.4 µM
(GR)8 concentration (enzyme 2.5 μg/mL, 30 min): BLQ
(GR)10 concentration (enzyme 2.5 μg/mL, 30 min): BLQ
(GR)1 concentration (enzyme 2.5 μg/mL, 60 min): 148.6 µM
(GR)2 concentration (enzyme 2.5 μg/mL, 60 min): 62.1 µM
(GR)4 concentration (enzyme 2.5 μg/mL, 60 min): 1.9 µM
(GR)6 concentration (enzyme 2.5 μg/mL, 60 min): BLQ
(GR)8 concentration (enzyme 2.5 μg/mL, 60 min): BLQ
(GR)10 concentration (enzyme 2.5 μg/mL, 60 min): BLQ
(GR)1 concentration (enzyme 2.5 μg/mL, 120 min): 325.0 µM
(GR)2 concentration (enzyme 2.5 μg/mL, 120 min): BLQ
(GR)4 concentration (enzyme 2.5 μg/mL, 120 min): BLQ
(GR)6 concentration (enzyme 2.5 μg/mL, 120 min): BLQ
(GR)8 concentration (enzyme 2.5 μg/mL, 120 min): BLQ
(GR)10 concentration (enzyme 2.5 μg/mL, 120 min): BLQ
(GR)1 concentration (enzyme 10 μg/mL, 0 min): BLQ
(GR)2 concentration (enzyme 10 μg/mL, 0 min): BLQ
(GR)4 concentration (enzyme 10 μg/mL, 0 min): BLQ
(GR)6 concentration (enzyme 10 μg/mL, 0 min): BLQ
(GR)8 concentration (enzyme 10 μg/mL, 0 min): 0.6 µM
(GR)10 concentration (enzyme 10 μg/mL, 0 min): 37.9 µM
(GR)1 concentration (enzyme 10 μg/mL, 5 min): 99.0 µM
(GR)2 concentration (enzyme 10 μg/mL, 5 min): 51.8 µM
(GR)4 concentration (enzyme 10 μg/mL, 5 min): 5.4 µM
(GR)6 concentration (enzyme 10 μg/mL, 5 min): 0.6 µM
(GR)8 concentration (enzyme 10 μg/mL, 5 min): BLQ
(GR)10 concentration (enzyme 10 μg/mL, 5 min): 0.8 µM
(GR)1 concentration (enzyme 10 μg/mL, 10 min): 145.9 µM
(GR)2 concentration (enzyme 10 μg/mL, 10 min): 62.2 µM
(GR)4 concentration (enzyme 10 μg/mL, 10 min): 1.8 µM
(GR)6 concentration (enzyme 10 μg/mL, 10 min): BLQ
(GR)8 concentration (enzyme 10 μg/mL, 10 min): BLQ
(GR)10 concentration (enzyme 10 μg/mL, 10 min): BLQ
(GR)1 concentration (enzyme 10 μg/mL, 30 min): 336.9 µM
(GR)2 concentration (enzyme 10 μg/mL, 30 min): BLQ
(GR)4 concentration (enzyme 10 μg/mL, 30 min): BLQ
(GR)6 concentration (enzyme 10 μg/mL, 30 min): BLQ
(GR)8 concentration (enzyme 10 μg/mL, 30 min): BLQ
(GR)10 concentration (enzyme 10 μg/mL, 30 min): BLQ
(GR)1 concentration (enzyme 10 μg/mL, 60 min): 340.3 µM
(GR)2 concentration (enzyme 10 μg/mL, 60 min): BLQ
(GR)4 concentration (enzyme 10 μg/mL, 60 min): BLQ
(GR)6 concentration (enzyme 10 μg/mL, 60 min): BLQ
(GR)8 concentration (enzyme 10 μg/mL, 60 min): BLQ
(GR)10 concentration (enzyme 10 μg/mL, 60 min): BLQ
(GR)1 concentration (enzyme 10 μg/mL, 120 min): 355.8 µM
(GR)2 concentration (enzyme 10 μg/mL, 120 min): BLQ
(GR)4 concentration (enzyme 10 μg/mL, 120 min): BLQ
(GR)6 concentration (enzyme 10 μg/mL, 120 min): BLQ
(GR)8 concentration (enzyme 10 μg/mL, 120 min): BLQ
(GR)10 concentration (enzyme 10 μg/mL, 120 min): BLQ
(GR)1 (in solution - 5 min reaction): 82.6 µM
(GR)2 (in solution - 5 min reaction): 106.2 µM
(GR)3 (in solution - 5 min reaction): 39.1 µM
(GR)4 (in solution - 5 min reaction): 28.6 µM
(GR)5 (in solution - 5 min reaction): 12.7 µM
(GR)6 (in solution - 5 min reaction): 8.4 µM
(GR)8 (in solution - 5 min reaction): 0.0 µM
(GR)10 (in solution - 5 min reaction): 12.4 µM
(GR)1 (in solution - 60 min reaction): 383.2 µM
(GR)2 (in solution - 60 min reaction): 0.0 µM
(GR)3 (in solution - 60 min reaction): 0.0 µM
(GR)4 (in solution - 60 min reaction): 0.0 µM
(GR)5 (in solution - 60 min reaction): 0.0 µM
(GR)6 (in solution - 60 min reaction): 0.0 µM
(GR)8 (in solution - 60 min reaction): 0.0 µM
(GR)10 (in solution - 60 min reaction): 0.0 µM
